Sequences and labels used below:
T1: pE3-16 (Pyr-…-biotin) (human)
T1 construct: also called pE3-16B
T1 peptide: [pGlu]FRHDSGYEVHHQK-biotin

B1: Antibody II (R17L) (antibody, human IgG1, kappa, V domains shown)
VH: QVQLVQSGAEVKKPGSSVKVSCKASGYTFTRYYINWVRQAPGQGLEWMGWINPGSGNTKYNEKFKGRVTITADESTSTAYMELSSLRSEDTAVYYCAREGTTVYWGQGTTVTVSS
VL: DIVMTQTPLSLSVTPGQPASISCKSSQSLLYSRGKTYLNWLLQKPGQSPQLLIYAVSKLDSGVPDRFSGSGSGTDFTLKISRVEAEDVGVYYCVQGTHYPFTFGQGTKLEIKR
notes: Human engineered anti-N3pGlu Aβ monoclonal antibody
B2: Antibody VII (mE8c) (antibody, mouse IgG2a, kappa, V domains shown)
VH: EVQLLESGPELVKPGASVKISCKASGYTFTDYYINWVKQRPGQGLEWIGWINPGSGNTKYNEKFKGKATLTVDTSSSTAYMQLSSLTSEDSAVYFCTREGETVYWGQGTTLTVSS
VL: B1 VL with D1N, M4L, S10T, P15I, K44R, Q50K, L51R, S68I, V88L, Q105S
notes: Mouse IgG2a isotype of the mE8 clone; also called mE8c - IgG2a; parental mouse antibody
B3: Antibody I (B12L) (antibody, human IgG1, kappa, V domains shown)
VH: B1 VH with T28D, T101I
VL: B1 VL
notes: as for B1

Residue numbers refer to the chain shown, from its start. In names and notes the source's numbering stands. Square brackets hold non-standard residues; d marks the D form. pGlu = O=C1CC[C@@H](C(=O)O)N1

T2 sequence (P05067 672-711 limits assumed): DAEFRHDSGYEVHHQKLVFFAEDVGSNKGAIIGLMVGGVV

The first test concerns the target T1, pE3-16 (Pyr-…-biotin). Briefly: SPR (BIACORE 2000), antibody captured, peptide injected. In general terms: SPR reads the build-up and loss of mass on a sensor chip optically.
On to B1, for which the binding result is on record as “binds”.

Turning to B2, the binding result is listed as “binds”.

In the case of B3, the binding result was “binds”.

The next test has as its target T2, Aβ1-40 (UniProt P05067 672-711).
T2 construct: domain: Aβ1-40; The numbers 1-40 count on the Aβ peptide, not on the APP precursor
The test is described as above.
In the case of B1, the binding result is given as “no binding”.

On to B2, for which the binding result was “no binding”.

With B3, the binding result is “no binding”.

The record behind these values is patent US20130142806A1 (Eli Lilly, published 2013).
